{
  "source": "patent US20030171565",
  "tested_on": "protein zero related (PZR), tyrosine-phosphorylated",
  "sequence (chain, as listed by the source)": "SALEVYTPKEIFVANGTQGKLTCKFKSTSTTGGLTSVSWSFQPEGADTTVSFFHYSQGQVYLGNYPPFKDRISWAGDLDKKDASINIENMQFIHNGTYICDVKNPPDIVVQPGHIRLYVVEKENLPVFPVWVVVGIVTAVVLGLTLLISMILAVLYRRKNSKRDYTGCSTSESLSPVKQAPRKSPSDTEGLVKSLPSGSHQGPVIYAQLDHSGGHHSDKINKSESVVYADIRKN",
  "data": [
    {"substance": "tyrosine phosphatase SHP-1", "values": [
      {"measurement": "dephosphorylation of purified p43 in vitro (anti-phosphotyrosine Western blot)", "value": "SHP-1 only produced a partial dephosphorylation"}
    ]}
  ]
}
